This series in a line: protein stability index of a GFP-peptide fusion (GPS, HEK-293T) (PSI 1-6); higher = more stable. Conditions: c terminus: a fixed tail appended.

Results on 36 sequences are retold here after the supplement of paper PMC10567573.

± gives the standard deviation.
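Note: 24-mer peptide tiles fused after GFP, lentivirally expressed, FACS-sorted into six equal bins by GFP/DsRed ratio, decoded by Illumina sequencing, PSI is the read-weighted mean bin number.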

MIHRTRKQKYFYKGGLVWDENSSD [CLK3] came in with a protein stability index (treatment: DMSO) of 3.06 ± 0.22 and a protein stability index (treatment: MLN4924 1 uM, 8 h) of 3.06 ± 0.23.
For MKEFSNQVVGQVNVEMDATPGIDL [KRT13], in that order: 4.58 ± 0.16 and 4.44 ± 0.27.
For MKEQDLMCIKLHGVSKVGLRKIID [KLHL13], in that order: 2.18 ± 0.53 and 2.15 ± 0.44.
For MKGFSFKEDTLLLIAEVMGEDIPE [C8orf76], in that order: 2.09 ± 0.11 and 2.21 ± 0.24.
For MKIKQDRASRTYELQNQLAACTRA [FSD1], the protein stability index by setting is: (treatment: DMSO) 3.52 ± 0.12; (treatment: MLN4924 1 uM, 8 h) 3.62 ± 0.38.
Consider MKRHSSRDAAGKPQRPRSAPRTSS [FCHO1], for which the protein stability index by setting is: (treatment: DMSO) 4.82 ± 0.28; (treatment: MLN4924 1 uM, 8 h) 4.92 ± 0.34.
On the same counts, the results for MNEHPVCSRTWTNRLCHQEMGSKK [SPAG8] are 3.94 ± 0.28 and 4.09 ± 0.12.
For MPPLLPLRLCRLWPRNPPSRLLGA [DNAJC4], in that order: 2.29 ± 0.37 and 2.15 ± 0.11.
MPSSTTQKDSYQPPGNVYWPLRGK [SPAG8]: the protein stability index stood at 4.21 ± 0.28 (treatment: DMSO) and 4.22 ± 0.28 (treatment: MLN4924 1 uM, 8 h).
On the same counts, the results for MQQSNLDPLSPMTASSLLSFAELF [FEM1C] are 2.83 ± 0.29 and 2.52 ± 0.42.
On the same counts, the results for MRGFKGDRGPKGEKGEKGDRAGDA [SCARA5] are 5.41 ± 0.25 and 5.44 ± 0.44.
For the sequence MRHLSTGTMTGLAIQYALNIAFSE [MATN2], the protein stability index reads like this: (treatment: DMSO) 3.08 ± 0.49; (treatment: MLN4924 1 uM, 8 h) 3.33 ± 0.25.
On the same counts, the results for MRYEEEGMSYLYASWMYQLQHGDQ [TEX19] are 2.3 ± 0.29 and 2.13 ± 0.17.
On the same counts, the results for MSLFSLYMVQDQHECILPFVQVKG [M1AP] are 2.43 ± 0.54 and 2.14 ± 0.56.
For MSYHSGSVFSARDRDPNSLLISCA [TNXB], in that order: 2.51 ± 0.2 and 2.44 ± 0.15.
Take MTETDAFYKREMFDPAEKYKMDHR [CASP6]: the protein stability index was 4.05 ± 0.25 (treatment: DMSO) and 4.1 ± 0.29 (treatment: MLN4924 1 uM, 8 h).
For the sequence MTGRAMDPLPAAAVGAAAEAEADE [SNX8], the protein stability index reads like this: (treatment: DMSO) 5.52 ± 0.3; (treatment: MLN4924 1 uM, 8 h) 5.78 ± 0.12.
As for MTTCSRQFTSSSSMKGSCGIGGGI [KRT16], the protein stability index was 2.41 ± 0.5 (treatment: DMSO) and 2.33 ± 0.16 (treatment: MLN4924 1 uM, 8 h).
For MWDTKTLGLRQHHCRKCGQAVCGK [WDFY1], in that order: 3.21 ± 0.25 and 3.4 ± 0.27.
On the same counts, the results for MWYPEIKHFCPRAPVILVGCQLDL [RHOBTB2] are 3.24 ± 0.81 and 2.77 ± 0.28.
For NAQIPELKSDLEKASALNTKIRAL [CD207], in that order: 4.016 ± 0.023 and 3.86 ± 0.48.
As for NCMAEKRETVLIETQLKACASFIR [C8orf76], the protein stability index is, setting by setting: (treatment: DMSO) 2.23 ± 0.32; (treatment: MLN4924 1 uM, 8 h) 2.25 ± 0.45.
On the same counts, the results for NCTLIISYQKPKEVVVAESELQKE [DPCD] are 2.18 ± 0.19 and 2.49 ± 0.2.
For NDDYYEESYFTTRTYGEPESAGPS [EMD], in that order: 4.84 ± 0.17 and 4.72 ± 0.17.
For NDEIEEVRLQSIHTMRKISNNITL [INTS4], in that order: 3.75 ± 0.23 and 3.69 ± 0.18.
For the sequence NEHKSCEEKSVKNTSIRVADFGSA [CLK3], the protein stability index is, setting by setting: (treatment: DMSO) 4.89 ± 0.16; (treatment: MLN4924 1 uM, 8 h) 5.03 ± 0.14.
For NFIVNDSRKKPIWNVLMWTSLFLG [SOAT1], in that order: 2.08 ± 0.14 and 2.2 ± 0.45.
On the same counts, the results for NFVHRFPFVAVSIGFAVNKKIEFG [IMPA1] are 2.91 ± 0.76 and 2.77 ± 0.61.
On the same counts, the results for NGERESGLRSLRLFQKLEENGDLY [WDR41] are 3.29 ± 0.12 and 3.52 ± 0.23.
In the case of NGMNAVMMHGRSYSLASGAGGGGS [RAB40C], the protein stability index reads like this: (treatment: DMSO) 3.19 ± 0.26; (treatment: MLN4924 1 uM, 8 h) 3.34 ± 0.34.
For NGSLYGQASSERLGLDNRLFGHPG [ADAMTSL2], in that order: 3.17 ± 0.53 and 3.46 ± 0.25.
For NGSMAMGTVPGQAPRLAVAVPAVT [LYSMD4], in that order: 3.77 ± 0.43 and 4 ± 0.23.
On the same counts, the results for NGVRVFPPAMPPPATHLSPALAPV [TRIM9] are 3.22 ± 0.28 and 3.34 ± 0.14.
In the case of NIDIQNGFLLRYAVIKSNHSYCRM [ASB7], the protein stability index came to 2.57 ± 0.38 (treatment: DMSO) and 2.54 ± 0.36 (treatment: MLN4924 1 uM, 8 h).
For NILEKEVLPPIHAYGNRTECRNPQ [FEM1B], in that order: 4.03 ± 0.079 and 4.18 ± 0.11.
Regarding NIPGDVLRAVEQAMGHSQDRLTTF [LRRC45], the protein stability index by setting is: (treatment: DMSO) 3.09 ± 0.14; (treatment: MLN4924 1 uM, 8 h) 3.19 ± 0.078.
